Assay results from PMC5662698 (2017).
No end group written: not given here.

Key:
[1] = biological target: TMR-labeled DnaK (DnaK FRET construct C15A/M404C/T437C labelled with tetramethylrhodamine) (E. coli, UniProt P0A6Y8 1-638, C15A | M404C | T437C, tetramethylrhodamine (TMR, from 5-IATR) on both introduced cysteines (M404C, T437C)); assay: ATP
BiP-C41A/C420A = BiP-C41A/C420A (Homo sapiens); assay: FP
[2] = biological target: BiP FRET construct BiP-C41A/C420A/V429C/T462C (human, UniProt P11021 19-654, C41A | C420A | V429C | T462C); assay: FP
human BiP, wild type = human BiP, wild type (human, UniProt P11021 19-654); assay: FP
[3] = biological target: BiP EPR construct BiP-C41A/C420A/V429C (human, UniProt P11021 19-654, C41A | C420A | V429C); assay: FP
DnaK-C15A/M404C/T437C = biological target: T1, DnaK-C15A/M404C/T437C (Escherichia coli (strain K12)); assay: FP
T1 chain: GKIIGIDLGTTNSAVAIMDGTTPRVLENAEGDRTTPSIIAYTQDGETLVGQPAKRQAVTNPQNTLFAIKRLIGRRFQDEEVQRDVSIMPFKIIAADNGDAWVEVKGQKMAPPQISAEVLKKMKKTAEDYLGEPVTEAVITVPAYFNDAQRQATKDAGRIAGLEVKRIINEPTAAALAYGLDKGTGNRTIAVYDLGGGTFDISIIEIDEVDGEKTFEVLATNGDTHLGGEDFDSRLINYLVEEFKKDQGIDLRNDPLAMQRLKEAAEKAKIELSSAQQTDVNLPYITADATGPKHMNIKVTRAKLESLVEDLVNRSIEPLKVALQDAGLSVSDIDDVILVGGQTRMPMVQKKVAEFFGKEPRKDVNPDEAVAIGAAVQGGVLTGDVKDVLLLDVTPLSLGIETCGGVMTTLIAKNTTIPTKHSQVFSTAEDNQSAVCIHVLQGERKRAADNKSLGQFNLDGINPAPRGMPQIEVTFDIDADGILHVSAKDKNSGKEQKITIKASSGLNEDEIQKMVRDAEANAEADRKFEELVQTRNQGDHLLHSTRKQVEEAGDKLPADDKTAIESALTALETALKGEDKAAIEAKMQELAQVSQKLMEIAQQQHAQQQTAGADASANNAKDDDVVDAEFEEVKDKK

human BiP, wild type, sequence (P11021 19-654): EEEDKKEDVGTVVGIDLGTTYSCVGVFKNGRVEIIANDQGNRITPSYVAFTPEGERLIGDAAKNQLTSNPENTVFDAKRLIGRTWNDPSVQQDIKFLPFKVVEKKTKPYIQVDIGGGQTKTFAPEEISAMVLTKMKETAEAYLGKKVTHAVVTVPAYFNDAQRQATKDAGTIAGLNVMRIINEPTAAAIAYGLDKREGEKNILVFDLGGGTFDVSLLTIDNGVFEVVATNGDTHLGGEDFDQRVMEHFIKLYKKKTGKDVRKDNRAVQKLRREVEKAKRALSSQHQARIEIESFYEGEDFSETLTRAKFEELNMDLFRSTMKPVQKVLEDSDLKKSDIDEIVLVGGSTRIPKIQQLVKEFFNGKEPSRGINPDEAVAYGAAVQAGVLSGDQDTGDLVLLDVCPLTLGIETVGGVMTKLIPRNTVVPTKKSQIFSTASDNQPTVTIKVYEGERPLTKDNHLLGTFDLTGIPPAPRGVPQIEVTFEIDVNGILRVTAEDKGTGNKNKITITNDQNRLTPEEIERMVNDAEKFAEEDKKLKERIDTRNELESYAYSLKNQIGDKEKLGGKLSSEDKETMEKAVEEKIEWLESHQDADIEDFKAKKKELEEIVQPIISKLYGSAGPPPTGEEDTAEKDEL
BiP FRET construct BiP-C41A/C420A/V429C/T462C, sequence (P11021 19-654 C41A/C420A/V429C/T462C): as the sequence (P11021 19-654) above, with C23A, C402A, V411C, T444C counted along it
BiP EPR construct BiP-C41A/C420A/V429C, sequence (P11021 19-654 C41A/C420A/V429C): as the sequence (P11021 19-654) above, with C23A, C402A, V411C counted along it
BiP-C41A/C420A (Homo sapiens), sequence (chain, as listed by the source C41A C420A): as the sequence (P11021 19-654) above, with C23A, C402A counted along it

B1: DnaJ (natural protein)
chain: MAKQDYYEILGVSKTAEEREIRKAYKRLAMKYHPDRNQGDKEAEAKFKEIKEAYEVLTDSQKRAAYDQYGHAAFEQGGMGGGGFGGGADFSDIFGDVFGDIFGGGRGRQRAARGADLRYNMELTLEEAVRGVTKEIRIPTLEECDVCHGSGAKPGTQPQTCPTCHGSGQVQMRQGFFAVQQTCPHCQGRGTLIKDPCNKCHGHGRVERSKTLSVKIPAGVDTGDRIRLAGEGEAGEHGAPAGDLYVQVQVKQHPIFEREGNNLYCEVPINFAMAALGGEIEVPTLDGRVKLKVPGETQTGKLFRMRGKGVKSVRGGAQGDLLCRVVVETPVGLNERQKQLLQELQESFGGPTGEHNSPRSKSFFDGVKKFFDDLTR
Binder B1 has a Kd [1] of 182 nM.

fluorescein-NRLLLTG [NR peptide (NRLLLTG), fluorescein-labelled] was tested, and the Kd (BiP-C41A/C420A) was 850 nM, the Kd [2] was 610 nM and the Kd (human BiP, wild type) was 910 nM. It also gave a Kd [3] of 820 nM and a Kd (DnaK-C15A/M404C/T437C) of 2120 nM.
